Test results as given in paper PMC2500142.

Biological target: GFP-actin (UniProt P60709)
Test: dual color fluorescence cross-correlation spectroscopy

relative cross-correlation amplitude ([Gc(0)-1]/[Gr(0)-1]), apical membrane: 0.33 | relative cross-correlation amplitude ([Gc(0)-1]/[Gr(0)-1]), subapical region: 0.4
Substance: DsRed-AQP2 (from UniProt P41181 1-271) (natural protein)
